Test results: IntAct's records for PubMed 31515488

B1: Katanin p60 ATPase-containing subunit A-like 1 (Homo sapiens), Q9BW62 (parent)
chain: MNLAEICDNAKKGREYALLGNYDSSMVYYQGVMQQIQRHCQSVRDPAIKGKWQQVRQELLEEYEQVKSIVSTLESFKIDKPPDFPVSCQDEPFRDPAVWPPPVPAEHRAPPQIRRPNREVRPLRKEMAGVGARGPVGRAHPISKSEKPSTSRDKDYRARGRDDKGRKNMQDGASDGEMPKFDGAGYDKDLVEALERDIVSRNPSIHWDDIADLEEAKKLLREAVVLPMWMPDFFKGIRRPWKGVLMVGPPGTGKTMLAKAVATECGTTFFNVSSSTLTSKYRGESEKLVRLLFEMARFYAPTTIFIDEIDSICSRRGTSDEHEASRRVKSELLIQMDGVGGALENDDPSKMVMVLAATNFPWDIDEALRRRLEKRIYIPLPTAKGRAELLKINLREVELDPDIQLEDIAEKIEGYSGADITNVCRDASLMAMRRRINGLSPEEIRALSKEELQMPVTKGDFELALKKIAKSVSAADLEKYEKWMVEFGSA
partner: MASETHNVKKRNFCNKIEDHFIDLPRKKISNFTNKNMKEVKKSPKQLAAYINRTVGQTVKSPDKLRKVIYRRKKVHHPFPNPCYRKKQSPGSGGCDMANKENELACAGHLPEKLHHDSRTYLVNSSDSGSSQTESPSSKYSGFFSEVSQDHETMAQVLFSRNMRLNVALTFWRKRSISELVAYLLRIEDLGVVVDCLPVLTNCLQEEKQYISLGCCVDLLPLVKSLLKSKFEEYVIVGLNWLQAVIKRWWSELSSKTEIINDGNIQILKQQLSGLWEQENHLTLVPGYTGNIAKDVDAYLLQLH
B2: F-box/WD repeat-containing protein 1A (Homo sapiens), Q9Y297 (parent)
chain: MDPAEAVLQEKALKFMCSMPRSLWLGCSSLADSMPSLRCLYNPGTGALTAFQNSSEREDCNNGEPPRKIIPEKNSLRQTYNSCARLCLNQETVCLASTAMKTENCVAKTKLANGTSSMIVPKQRKLSASYEKEKELCVKYFEQWSESDQVEFVEHLISQMCHYQHGHINSYLKPMLQRDFITALPARGLDHIAENILSYLDAKSLCAAELVCKEWYRVTSDGMLWKKLIERMVRTDSLWRGLAERRGWGQYLFKNKPPDGNAPPNSFYRALYPKIIQDIETIESNWRCGRHSLQRIHCRSETSKGVYCLQYDDQKIVSGLRDNTIKIWDKNTLECKRILTGHTGSVLCLQYDERVIITGSSDSTVRVWDVNTGEMLNTLIHHCEAVLHLRFNNGMMVTCSKDRSIAVWDMASPTDITLRRVLVGHRAAVNVVDFDDKYIVSASGDRTIKVWNTSTCEFVRTLNGHKRGIACLQYRDRLVVSGSSDNTIRLWDIECGACLRVLEGHEELVRCIRFDNKRIVSGAYDGKIKVWDLVAALDPRAPAGTLCLRTLVEHSGRVFRLQFDEFQIVSSSHDDTILIWDFLNDPAAQAEPPRSPSRTYTYISR
partner: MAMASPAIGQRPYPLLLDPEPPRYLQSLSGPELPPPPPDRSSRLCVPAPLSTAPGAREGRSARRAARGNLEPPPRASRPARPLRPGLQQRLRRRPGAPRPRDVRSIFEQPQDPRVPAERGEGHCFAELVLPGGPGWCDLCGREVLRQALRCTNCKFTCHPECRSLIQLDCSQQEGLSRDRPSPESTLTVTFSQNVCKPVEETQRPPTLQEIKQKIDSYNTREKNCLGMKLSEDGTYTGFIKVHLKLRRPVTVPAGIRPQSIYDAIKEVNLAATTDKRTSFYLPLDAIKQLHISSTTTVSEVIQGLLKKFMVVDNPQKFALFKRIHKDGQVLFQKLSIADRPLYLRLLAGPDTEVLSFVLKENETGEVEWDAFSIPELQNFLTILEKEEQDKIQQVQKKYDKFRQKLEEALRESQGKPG
B3: Glycolipid transfer protein (Homo sapiens), Q9NZD2 (parent)
chain: MALLAEHLLKPLPADKQIETGPFLEAVSHLPPFFDCLGSPVFTPIKADISGNITKIKAVYDTNPAKFRTLQNILEVEKEMYGAEWPKVGATLALMWLKRGLRFIQVFLQSICDGERDENHPNLIRVNATKAYEMALKKYHGWIVQKIFQAALYAAPYKSDFLKALSKGQNVTEEECLEKIRLFLVNYTATIDVIYEMYTQMNAELNYKV
partner: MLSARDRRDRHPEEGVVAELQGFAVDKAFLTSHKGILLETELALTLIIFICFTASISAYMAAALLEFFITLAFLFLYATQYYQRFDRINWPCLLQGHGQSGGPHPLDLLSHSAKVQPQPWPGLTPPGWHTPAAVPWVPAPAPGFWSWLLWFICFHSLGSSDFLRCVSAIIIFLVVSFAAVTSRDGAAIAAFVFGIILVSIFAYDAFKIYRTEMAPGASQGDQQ
B4: Charged multivesicular body protein 4a (Homo sapiens), Q9BY43 (parent)
chain: MSGLGRLFGKGKKEKGPTPEEAIQKLKETEKILIKKQEFLEQKIQQELQTAKKYGTKNKRAALQALRRKKRFEQQLAQTDGTLSTLEFQREAIENATTNAEVLRTMELAAQSMKKAYQDMDIDKVDELMTDITEQQEVAQQISDAISRPMGFGDDVDEDELLEELEELEQEELAQELLNVGDKEEEPSVKLPSVPSTHLPAGPAPKVDEDEEALKQLAEWVS
partner: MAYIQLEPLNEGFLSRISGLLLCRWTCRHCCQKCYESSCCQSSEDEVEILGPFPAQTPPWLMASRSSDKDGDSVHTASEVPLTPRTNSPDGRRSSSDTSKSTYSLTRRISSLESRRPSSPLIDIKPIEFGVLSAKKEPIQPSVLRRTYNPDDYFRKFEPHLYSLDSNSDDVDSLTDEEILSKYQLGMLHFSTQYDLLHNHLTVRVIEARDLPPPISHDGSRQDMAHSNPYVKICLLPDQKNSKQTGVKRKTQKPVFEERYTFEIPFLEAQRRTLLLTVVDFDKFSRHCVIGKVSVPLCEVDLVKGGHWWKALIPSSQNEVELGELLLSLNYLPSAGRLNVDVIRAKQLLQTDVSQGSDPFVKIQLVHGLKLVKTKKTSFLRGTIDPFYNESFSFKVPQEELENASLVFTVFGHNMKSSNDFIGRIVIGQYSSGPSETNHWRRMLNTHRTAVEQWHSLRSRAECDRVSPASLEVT

Variants of: B1
Settings: with ktbl1_human KATNBL1, Q9H079

| Variant | effect of a mutation on the interaction |
| --- | --- |
| V272I | with no effect |
| C424S | with no effect |
| I142M | with no effect |

Variants of: B2
Settings: with rasf5_human RASSF5, Q8WWW0

| Variant | effect of a mutation on the interaction |
| --- | --- |
| T601S | with no effect |
| P592H | with no effect |
| R594H | with no effect |
| T414A | disrupting interaction strength |
| L8M | with no effect |
| I439V | disrupting interaction strength |

Variants of: B3
Settings: with cklf5_human CMTM5, Q96DZ9

| Variant | effect of a mutation on the interaction |
| --- | --- |
| R68Q | with no effect |
| R116Q | with no effect |

Variants of: B4
Settings: with syt17_human SYT17, Q9BSW7

| Variant | effect of a mutation on the interaction |
| --- | --- |
| G153R | with no effect |
